Patent publication US20170182119A1 (Dana-Farber, published 2017)

T1: C-terminal MYC-NCOA4 (aa 235-614) (human, UniProt Q13772 235-614)
T1 construct: In vitro translated; also called C-terminal NCOA4; NCOA4 C-terminal fragment; not shown: N-terminal MYC tag (vector pT7CFE1-NMyc)
T1 sequence: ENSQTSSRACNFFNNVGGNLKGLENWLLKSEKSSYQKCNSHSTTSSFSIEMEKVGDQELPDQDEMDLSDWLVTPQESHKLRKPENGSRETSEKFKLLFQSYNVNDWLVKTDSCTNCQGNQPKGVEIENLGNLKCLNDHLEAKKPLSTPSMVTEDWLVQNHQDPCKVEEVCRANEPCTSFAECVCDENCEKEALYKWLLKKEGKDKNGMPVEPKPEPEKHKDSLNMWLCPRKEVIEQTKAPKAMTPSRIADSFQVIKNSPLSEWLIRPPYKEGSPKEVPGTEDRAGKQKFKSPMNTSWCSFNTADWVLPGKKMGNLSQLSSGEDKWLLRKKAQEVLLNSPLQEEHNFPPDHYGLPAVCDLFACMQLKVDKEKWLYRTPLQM

T2: MYC-NCOA4 full-length (human, UniProt Q13772 1-614)
T2 construct: not shown: N-terminal MYC tag (vector pT7CFE1-NMyc)
T2 sequence: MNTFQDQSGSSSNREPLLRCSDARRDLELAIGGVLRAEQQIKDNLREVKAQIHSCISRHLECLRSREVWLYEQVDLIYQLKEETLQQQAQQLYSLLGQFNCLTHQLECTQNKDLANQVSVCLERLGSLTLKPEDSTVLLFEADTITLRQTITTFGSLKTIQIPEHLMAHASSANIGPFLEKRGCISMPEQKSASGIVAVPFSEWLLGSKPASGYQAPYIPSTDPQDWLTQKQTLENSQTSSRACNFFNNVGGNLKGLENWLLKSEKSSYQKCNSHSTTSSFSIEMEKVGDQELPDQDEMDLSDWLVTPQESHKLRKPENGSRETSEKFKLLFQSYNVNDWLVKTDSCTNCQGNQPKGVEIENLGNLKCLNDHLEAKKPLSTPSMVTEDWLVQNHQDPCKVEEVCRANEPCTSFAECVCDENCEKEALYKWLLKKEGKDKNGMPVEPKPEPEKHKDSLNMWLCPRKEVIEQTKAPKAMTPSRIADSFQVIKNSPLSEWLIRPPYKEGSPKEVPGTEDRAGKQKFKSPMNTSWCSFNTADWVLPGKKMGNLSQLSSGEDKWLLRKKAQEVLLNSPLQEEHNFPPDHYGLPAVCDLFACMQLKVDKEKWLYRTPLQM

B1: ferritin purified from horse spleen (mixture of FTH1 and FTL subunits) (other)
chain 1: TTAFPSQVRQNYHQDSEAAINRQINLELHASYVYLSMSFYFDRDDVALKNFAKYFLHQSHEEREHAEKLMKLQNQRGGRIFLQDIKKPDQDDWENGLKAMECALHLEKNVNESLLELHKLATDKNDPHLCDFLETHYLNEQVKAIKELGDHVTNLRRMGAPESGMAEYLFDKHTLGECDES
chain 2: SSQIRQNYSTEVEAAVNRLVNLYLRASYTYLSLGFYFDRDDVALEGVCHFFRELAEEKREGAERLLKMQNQRGGRALFQDLQKPSQDEWGTTLDAMKAAIVLEKSLNQALLDLHALGSAQADPHLCDFLESHFLDEEVKLIKKMGDHLTNIQRLVGSQAGLGEYLFERLTLKHD
notes: Bought from Sigma (A3641 in the MYC assays, F4503 in the GST pull-downs); detected with anti-FTH1 antibody; also called Apoferritin; apo-ferritin purified from equine spleen
B2: N-terminal MYC-NCOA4 (aa 1-245) (other)
chain: MNTFQDQSGSSSNREPLLRCSDARRDLELAIGGVLRAEQQIKDNLREVKAQIHSCISRHLECLRSREVWLYEQVDLIYQLKEETLQQQAQQLYSLLGQFNCLTHQLECTQNKDLANQVSVCLERLGSLTLKPEDSTVLLFEADTITLRQTITTFGSLKTIQIPEHLMAHASSANIGPFLEKRGCISMPEQKSASGIVAVPFSEWLLGSKPASGYQAPYIPSTDPQDWLTQKQTLENSQTSSRACN
notes: In vitro translated; also called N-terminal NCOA4; NCOA4 N-terminal fragment; not shown: N-terminal MYC tag (vector pT7CFE1-NMyc)
B3: MYC-tagged NCOA4B (transcript variant, amino acids 1-238 and 555-614 of full-length NCOA4) (other)
chain: MNTFQDQSGSSSNREPLLRCSDARRDLELAIGGVLRAEQQIKDNLREVKAQIHSCISRHLECLRSREVWLYEQVDLIYQLKEETLQQQAQQLYSLLGQFNCLTHQLECTQNKDLANQVSVCLERLGSLTLKPEDSTVLLFEADTITLRQTITTFGSLKTIQIPEHLMAHASSANIGPFLEKRGCISMPEQKSASGIVAVPFSEWLLGSKPASGYQAPYIPSTDPQDWLTQKQTLENSQGEDKWLLRKKAQEVLLNSPLQEEHNFPPDHYGLPAVCDLFACMQLKVDKEKWLYRTPLQM
notes: in vitro translated; also called NCOAB; not shown: N-terminal MYC tag (vector pT7CFE1-NMyc)

Legend:
[1] = target: T1, C-terminal MYC-NCOA4 (aa 235-614); experiment: anti-MYC immunoprecipitation of in vitro translated MYC-NCOA4 with horse spleen ferritin, immunoblot
Experimental: (§1) An anti-MYC antibody immunoprecipitation was performed followed by immunoblotting with the indicated antibodies.
(§2) To probe the interaction between ferritin and NCOA4, initial binding assays using MYC-tagged NCOA4 full-length and truncation constructs produced using an in vitro translation (“IVT”) system were conducted. […] Apoferritin (Sigma, A3641-100 mg) was added in a pull-down assay using anti-c-Myc Agarose Affinity Gel antibody produced in rabbit (Sigma, A7470-1 ML). Affinity purification reactions were washed thoroughly with 150 mM NaCl, 20 mM Tris (pH 7.4), and 2 mM dithiothreitol.

MYC-NCOA4 full-length = target: T2, MYC-NCOA4 full-length; experiment: as above
Experimental: as §1, §2

[2] = target: B1; experiment: anti-MYC immunoprecipitation of in vitro translated MYC-NCOA4 with horse spleen ferritin, FTH1 immunoblot
Experimental: as §1, §2

[3] = target: B1; experiment: anti-MYC immunoprecipitation of in vitro translated MYC-NCOA4B with horse spleen ferritin, FTH1 immunoblot
Experimental: as §1, §2

Binder: B1
binding result [1]: binds | binding result (MYC-NCOA4 full-length): binds

Binder: B2
binding result [2]: no binding

Binder: B3
binding result [3]: no binding
